From US20240207421A1, “NERVE TARGETING PEPTIDES AND METHODS OF USE” (ALUME BIOSCIENCES, INC., priority 2020, published 2024) come the findings set out here.

For the first assay, the target named is T1, Human Myelin Basic Protein (Homo sapiens, UniProt P02686). As to the kind of experiment: phage display, NGS count.
Settings: not given
Target sequence in this assay (P02686 135-304 limits assumed): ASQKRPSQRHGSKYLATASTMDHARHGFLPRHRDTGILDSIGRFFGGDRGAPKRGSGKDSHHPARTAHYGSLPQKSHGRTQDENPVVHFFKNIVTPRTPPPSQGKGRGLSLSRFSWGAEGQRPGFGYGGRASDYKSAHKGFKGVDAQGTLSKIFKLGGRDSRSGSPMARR
AAGQRSF (peptide): the Count was 7.
Same read-out and setting: the figure for AGSLLSL (peptide) is 6.
On the same count and under the same terms, the result for AILTRPP (peptide) reads 7.
The same measure, in the same setting: the result for AIPPRKL (peptide) reads 6; that for AISWKGF (peptide), 6; that for AKFTMWV (peptide), 6.
Regarding ALGTRPL (peptide), the Count was 7.
The substance ALRDTRV (peptide) had a Count of 6.
Still for that read-out and setting: the figure for ALYNQMT (peptide) is 6; for ANLSRSV (peptide) it is 9.
Still for that read-out and setting: the result for AQFLTIY (peptide) reads 6; that for AQLGAFR (peptide), 6.
The same measure, in the same setting: the result for ARVPNPL (peptide) reads 6; that for ASNTSKG (peptide), 7; that for AVRQTTM (peptide), 7.
DSQEKSV (peptide) registered a Count of 6.
Same read-out and setting: the result for DSYLLSA (peptide) reads 8; that for DVRIWTL (peptide), 6; that for DVVKDVI (peptide), 7.
Regarding ELKSLRF (peptide), the Count stood at 6.
Still for that read-out and setting: the result for ESKSPRE (peptide) reads 6.
The same measure, in the same setting: the result for ESPYPHS (peptide) reads 7.
Take ETHYKIA (peptide): the Count was 6.
On the same count and under the same terms, the result for FDLLARK (peptide) reads 6; that for FKLPWAS (peptide), 7.
Still for that read-out and setting: the result for FLNQAPT (peptide) reads 7; that for FQLSYET (peptide), 6.
Still for that read-out and setting: the result for FSAGVGK (peptide) reads 7; that for FSARTNT (peptide), 9; that for FVLPNKN (peptide), 8.
In turn, GEPALVT (peptide) came in with a Count of 6.
Same read-out and setting: the figure for GPITHAI (peptide) is 7.
The same measure, in the same setting: the figure for GPRVTPH (peptide) is 6; for GQWWKML (peptide) it is 6.
Substance GRHTDVV (peptide) had a Count of 6.
Substance GSPYGWG (peptide) showed a Count of 6.
Still for that read-out and setting: the result for GVAEVGL (peptide) reads 6; that for HAHWARL (peptide), 6; that for HFLRPSD (peptide), 7.
Still for that read-out and setting: the figure for HFTFFPI (peptide) is 6.
Same read-out and setting: the result for HFYGPGP (peptide) reads 9.
For the substance HLLKTHS (peptide), the Count is 7.
Consider HMAGVNQ (peptide), for which the Count worked out at 7.
HPDTLPQ (peptide) came in with a Count of 7.
In turn, HPTGTPT (peptide) showed a Count of 7.
Still for that read-out and setting: the result for HPWLGNR (peptide) reads 9.

The next assay concerns the target T1, Human Myelin Basic Protein. As to the kind of experiment: Phage display library screening (Example 2, Python script analysis), binding to Human Myelin Basic Protein. To be noted: R3 Myelin Basic Protein; combined unique sequence count, Python/R script analysis. Further details: Enzo 200-606-M001 from human; purchased Enzo 200-606-M001; host or cells: human brain (tissue-derived). The method, then:
Phage display library screens were used to identify peptides that bind to target proteins (including specific laminin trimers) that are expressed in human nerves, as described in Table 3. These screens were also carried out to identify peptides that could bind selectively to nerves versus muscle. Such peptides could therefore be useful for systemic in-vivo labeling of nerves during fluorescence assisted surgery. Specifically, m 13 phage libraries expressing 7 or 12 random amino acid peptides, or a cyclic peptide CX7C, on the N-terminus of the minor coat protein pIII (New England Biolabs; NEB) were processed through multiple rounds of selection for binding to target proteins expressed in nerves, or to excised human nerves, nerve extracts, or muscle, as described further below.
For screening against the specified target proteins in Table 1, including LN211, LN411, LN421, and LN521, the phage library was processed by up to 4 binding and wash cycles. For selection, phage libraries were incubated for up to 24 hours at 4° C. in 96 well plates that had been coated with one of the target proteins. Plates were then washed with PBS and phage were eluted using 0.2M glycine pH 2.0. Phage supernatants where then neutralized with Tris pH 9.0 prior to plating on TGI bacteria and LB agar plates. Colonies were counted to determine titer followed by DNA preparation of pools of phage and NextGen sequencing. After rounds of selection, phage were pooled and amplified for iterative selection. Phage that were bound at each round were sequenced. NextGen sequencing of pools after 2, 3 and 4 rounds of selection was used to isolate candidate sequences that were analyzed further to identify those that specifically bound each unique target protein.
Python Script Analysis: For all NEB sequence datasets, a python script was used to translate, trim, and filter the peptide sequences. The script translated the nucleotide sequences, translating amber codons as glutamine in peptide sequences, and then trimmed the end sequences that come from the vector. Secondly, the script combined the unique counts of trimmed peptides with identical sequences. […] Another python script was used to group peptides from different assays according to protein target (Myelin Protein Zero, Myelin Proteolipid Protein, Myelin Basic Protein, and Nidogen-2) and also combine the unique sequence counts for each peptide. An R script was written to merge the peptide sequences from different data files and determine peptides specific for each protein target but absent from different protein binding datasets. Peptide sequences were ranked by unique sequence count.
Target sequence in this assay (P02686 134-304): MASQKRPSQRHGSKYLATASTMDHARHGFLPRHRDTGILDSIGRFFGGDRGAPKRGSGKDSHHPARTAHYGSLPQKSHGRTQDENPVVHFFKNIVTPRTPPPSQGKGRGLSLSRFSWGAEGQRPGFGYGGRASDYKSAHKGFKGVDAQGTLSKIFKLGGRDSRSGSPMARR
On to “SPPRFIP (R3 Myelin Basic Protein-binding peptide)”, for which the Count amounted to 8.
Same read-out and setting: the figure for “SRHLPPL (R3 Myelin Basic Protein-binding peptide)” is 6.
Regarding “SRPTRVP (R3 Myelin Basic Protein-binding peptide)”, the Count amounted to 9.
Same read-out and setting: the figure for “SSFYVAY (R3 Myelin Basic Protein-binding peptide)” is 6; for “SSGMLSK (R3 Myelin Basic Protein-binding peptide)” it is 7.
Same read-out and setting: the figure for “SSMRYNS (R3 Myelin Basic Protein-binding peptide)” is 6; for “SVEYGQL (R3 Myelin Basic Protein-binding peptide)” it is 9; for “SVGLPTK (R3 Myelin Basic Protein-binding peptide)” it is 6.
Same read-out and setting: the result for “SWFESHN (R3 Myelin Basic Protein-binding peptide)” reads 8; that for “SYRSMAP (R3 Myelin Basic Protein-binding peptide)”, 6.
Consider “SYTLSRS (R3 Myelin Basic Protein-binding peptide)”, for which the Count is reported as 7.
Still for that read-out and setting: the figure for “SYVTVFR (R3 Myelin Basic Protein-binding peptide)” is 6; for “TGNLRLY (R3 Myelin Basic Protein-binding peptide)” it is 9.
On the same count and under the same terms, the result for “TGPSSAV (R3 Myelin Basic Protein-binding peptide)” reads 6; that for “TGSVSKQ (R3 Myelin Basic Protein-binding peptide)”, 6; that for “THKHMMT (R3 Myelin Basic Protein-binding peptide)”, 6.
On the same count and under the same terms, the result for “TIRVAHT (R3 Myelin Basic Protein-binding peptide)” reads 6; that for “TLLTALT (R3 Myelin Basic Protein-binding peptide)”, 7.
As for “TPGRATL (R3 Myelin Basic Protein-binding peptide)”, the Count turned out to be 6.
On the same count and under the same terms, the result for “TPLYLSS (R3 Myelin Basic Protein-binding peptide)” reads 7; that for “TPQVMLK (R3 Myelin Basic Protein-binding peptide)”, 8.
For the substance “TPVLWLP (R3 Myelin Basic Protein-binding peptide)”, the Count was 6.
Still for that read-out and setting: the figure for “TPVRLNT (R3 Myelin Basic Protein-binding peptide)” is 6; for “TQMTMDS (R3 Myelin Basic Protein-binding peptide)” it is 10; for “TRIPILL (R3 Myelin Basic Protein-binding peptide)” it is 6.
On the same count and under the same terms, the result for “TSPPLAH (R3 Myelin Basic Protein-binding peptide)” reads 8; that for “TSRLVST (R3 Myelin Basic Protein-binding peptide)”, 8.
The same measure, in the same setting: the figure for “TTTQGHP (R3 Myelin Basic Protein-binding peptide)” is 6.
Regarding “VAHQRVS (R3 Myelin Basic Protein-binding peptide)”, the Count is 8.
Same read-out and setting: the result for “VGTFWTR (R3 Myelin Basic Protein-binding peptide)” reads 6; that for “VIRTAAM (R3 Myelin Basic Protein-binding peptide)”, 6; that for “VLSPYHN (R3 Myelin Basic Protein-binding peptide)”, 6.
As to “VPTLRIP (R3 Myelin Basic Protein-binding peptide)”, the Count was found to be 8.
In the case of “VRGTPNH (R3 Myelin Basic Protein-binding peptide)”, the Count was found to be 6.
Still for that read-out and setting: the figure for “VSFTLEP (R3 Myelin Basic Protein-binding peptide)” is 7.
Still for that read-out and setting: the result for “VVDMSTY (R3 Myelin Basic Protein-binding peptide)” reads 7; that for “WDLPQNR (R3 Myelin Basic Protein-binding peptide)”, 6.
Same read-out and setting: the figure for “WDLRHSK (R3 Myelin Basic Protein-binding peptide)” is 6; for “WPDLRIL (R3 Myelin Basic Protein-binding peptide)” it is 7; for “WSLPLLS (R3 Myelin Basic Protein-binding peptide)” it is 7.
“WSPRWPS (R3 Myelin Basic Protein-binding peptide)”: the Count is 7.
The same measure, in the same setting: the figure for “WTYHPTT (R3 Myelin Basic Protein-binding peptide)” is 6.
Turning to “WVPDRSL (R3 Myelin Basic Protein-binding peptide)”, the Count turned out to be 6.
In the case of “YATATPS (R3 Myelin Basic Protein-binding peptide)”, the Count amounted to 8.
Same read-out and setting: the result for “YLPPPLP (R3 Myelin Basic Protein-binding peptide)” reads 7.
Still for that read-out and setting: the figure for “YPTYLSY (R3 Myelin Basic Protein-binding peptide)” is 6; for “YPYVPIY (R3 Myelin Basic Protein-binding peptide)” it is 6.
Regarding “YSSRLND (R3 Myelin Basic Protein-binding peptide)”, the Count is 6.
Still for that read-out and setting: the result for “YTASPRW (R3 Myelin Basic Protein-binding peptide)” reads 6; that for “YVNRVKQ (R3 Myelin Basic Protein-binding peptide)”, 6.
